Assay results from patent US20240254196A1 (MEDYTOX, published 2024).

Legend:
human IL-1β [1] = molecular target: T1, human IL-1β (human, UniProt P01584 117-269); assay: SPR, Biacore T200; binder captured by anti-human Fc, cytokine injected; 1:1 Langmuir
T1 construct: Bought protein; also called hIL-1β
Method: (§1) In order to analyze binding capacity of PET101 to IL-1α and IL-1β more quantitatively, surface plasmon resonance analysis was performed by using Biacore T200 (GE healthcare). A Series S CM5 Sensor Chip (GE healthcare, BR100530) was used to measure the binding constant, and the anti-human Fc antibodies included in the Human Antibody Capture Kit (GE healthcare, BR100839) were immobilized to the sensor chip according to the manufacturer's manual by using an amine coupling kit (GE healthcare, BR100050). Flow cell 1 of the CM5 sensor, to which anti-human Fc antibodies were immobilized, was used as a blank space, and in Flow cells 2, 3, and 4, 100 nM of PET101 (18 μg/ml), 100 nM of rilonacept (25 μg/ml), and 100 nM of canakinumab (15 μg/ml) were respectively loaded for 1 minute at a flow rate of 10 μl/min. After preparation of all the flow cells, 0.25 nM, 0.5 nM, 1 nM, 2 nM, 4 nM, and 8 nM of human IL-1α (R&D systems, 200-LA), human IL-1β (R&D systems, 201-LB), and mouse IL-1α (R&D systems, 400-ML), mouse IL-1β (R&D systems, 401-ML), and rhesus monkey (Rhesus macaque) IL-1β (R&D systems, 1318-RL) antigens were injected at a flow rate of 30 μl/min, to carry out a binding reaction for 4 minutes, subsequently, only 1×HBS-EP+ buffer (GE healthcare, BR100669) was injected at a flow rate of 30 μl/min to perform a dissociation reaction for 10 minutes. Affinity was calculated by performing normalization and subtraction in each acquired sensorgram comparing with the blank cell. The BIAevaluation software (GE healthcare) was used for affinity calculation, and the association rate constant and dissociation rate constant were calculated through the 1:1 Langmuir model analysis. An equilibrium dissociation constant (KD) is a value obtained by dividing the dissociation rate constant (Kd) by the association rate constant (Kₐ).

[2] = molecular target: T2, rhesus monkey (Rhesus macaque) IL-1β (rhesus monkey (Rhesus macaque), UniProt P48090 117-269); assay: as above
T2 construct: Bought protein; also called Monkey IL-1β; monkey IL-1β
Method: as §1

human IL-1β [3] = molecular target: T1, human IL-1β; assay: ELISA, human IL-1β coated at 30 ng/well, detection with anti-human IgG Fc-HRP, OD 450 nm
Method: An analysis of binding of three types of IL-1 specific Fc fusion proteins (rilonacept, IL1T, PET101) to human IL-1β was performed by using an ELISA method. For comparison of binding capacity, human IL-1β antibody canakinumab was used as a control. […] Next day, the plate was washed with Phosphate Buffered Saline with Tween-20 (PBST; TEKNOVA, P1192). All washing procedures in this analysis were performed by using an AquaMax 2000 plate washer (Molecular Devices, 0310-5363). IL1T, PET101, rilonacept, and canakinumab were diluted in PBST containing 1% (w/v) skim milk to an appropriate concentration and treated in each well, binding was induced at room temperature for 1 hour, and plate was washed 3 times. Thereafter, peroxidase-bound anti-human IgG Fc goat antibodies (Invitrogen 31413) were diluted (1:10,000) in PBST containing 1% (w/v) skim milk to induce binding, and washed 3 times with PBST, and then color reaction was induced by treating 3,3′,5,5′-tetramethylbenzidine (TMB) substrate solution (Thermo Fisher Scientific, 34028) in the dark at room temperature. Thereafter, the reaction was terminated by treatment with 1N of sulfuric acid (DUKSAN, 255), and absorbance was measured at 450 nm by using a SpctraMax i3 multimode plate reader (Molecular Devices, 10192-220).

Kd (human IL-1β [1]): 0.0684 nM
koff (human IL-1β [1]): 5.21e-05 s⁻¹
kon (human IL-1β [1]): 762000 M⁻¹ s⁻¹
Kd [2]: 2850 nM
koff [2]: 0.0181 s⁻¹
kon [2]: 6350 M⁻¹ s⁻¹
EC50 (human IL-1β [3]): 0.0882 nM
B1: canakinumab (antibody)
chain 1: not shown
chain 2: EIVLTQSPDFQSVTPKEKVTITCRASQSIGSSLHWYQQKPDQSPKLLIKYASQSFSGVPSRFSGSGSGTDFTLTINSLEAEDAAAYYCHQSSSLPFTFGPGTKVDIKRTVAAPSVFIFPPSDEQLKSGTASVVCLLNNFYPREAKVQWKVDNALQSGNSQESVTEQDSKDSTYSLSSTLTLSKADYEKHKVYACEVTHQGLSSPVTKSFNRGEC
